Source: patent US20190282673A1, “STAPHTAME ACTIVITY ON BIOFILMS” (priority 2016, published 2019)

Columns and labels:
[1] = tested on: S. aureus small colony variants (hemB and menD mutants); test: Lawn inhibition assay on small colony variants; format: cell-based, Staphylococcus aureus
Procedure: Two S. aureus small colony variants viz., hemB mutant and menD mutants were characterized for SCV phenotype and auxotrophy for hemin and menadione. Both the isolates were revived on LB agar with and without Erythromycin (5 μg/mL) and Blood agar medium and incubated at 37° C. for 48 hr.
P128 was tested on both the mutants by lawn inhibition assay and the SCV's were susceptible to P128.

[2] = tested on: S. aureus small colony variants and wild type; test: CFU drop assay on small colony variants; format: cell-based, Staphylococcus aureus
Procedure: Bacterial cultures were grown in LB medium at 37° C. until OD600 reached 1.0 and then diluted in LB to obtain 10^7 CFU. 100 μL of cells (10^7 CFU) in LB were treated with 100 μL of P128 (in saline) and incubated at 37° C. for 1 h, 200 rpm, cell controls without proteins were maintained. Following incubation, the volume was made up to 1 mL with LB broth, serially log diluted in LB broth and plated on LB agar. Incubated at 37° C. for 16-18 h to enumerate residual CFU and determine cell killing.

[3] = tested on: S. epidermidis stationary phase cells; test: P128 activity on stationary phase cells (CFU); format: cell-based, Staphylococcus epidermidis; conditions: 10 μg/mL P128, 2 h
Source text: Most in vitro studies examining the activity of antibiotics have been performed on rapidly dividing planktonic bacterial cultures supplemented with rich growth media. However, in infections, bacteria seldom encounter optimal conditions that allow logarithmic growth. It is likely that stationary-phase or non dividing bacteria are common in many persistent Staphylococcus infections such as endocarditis and osteomyelitis and in biofilm-associated infections (e.g., on catheters, grafts, and foreign bodies). Therefore, activity of P128 was determined on stationary phase cells of three S. aureus strains, three S. epidermidis, and two each of S. lugdunensis and S. haemolyticus strains. Briefly, the test cultures were grown overnight in LB (˜10^9 cells), centrifuged, pellet was washed and resuspended in saline. Optical density (OD600) was adjusted to 0.2 (˜10^8 CFU/mL). 100 μL of these cells were treated with 10 μg/mL P128 (in saline) and incubated at 37° C. for 2 h, 200 rpm, cell controls without proteins were maintained. Following incubation, the volume was made up to 1 mL with saline, serially log diluted in saline and plated on LB agar. Incubated at 37° C. for 18 h to enumerate residual CFU to determine cell killing.

S. aureus = test: P128 MIC in CAMHB and serum; format: cell-based, Staphylococcus aureus
S. epidermidis = test: P128 MIC in CAMHB and serum; format: cell-based, Staphylococcus epidermidis
S. lugdunensis = test: P128 MIC in CAMHB and serum; format: cell-based
MRSA MW2 = test: Rat model of infective endocarditis; format: in vivo, Wistar albino rats; conditions: described in present tense, no data
Source text: A rat model of infective endocarditis is used. Fernandez, et al. (2012). Synergistic activity of ceftobiprole and vancomycin in a rat model of infective endocarditis caused by methicillin-resistant and glycopeptide-intermediate Staphylococcus aureus. Antimicrob Agents Chemother. 56(3):1476-84. Female Wistar albino rats are operated under ketamine and xylazine anaesthesia Right carotid artery is cannulated and polyethylene catheter is placed near the […]. Two days later, animals are challenged with MRSA MW2 through tail vein. Twenty four hours post-challenge, animals are treated with appropriate doses of P128 (IV bolus or infusion) or standard of care antibiotics (e.g., vancomycin, daptomycin, linezolid, oxacillin, etc.) or both. Animals are euthanized at appropriate time after the last dosing, vegetations are collected and bacterial load is determined.

B1: P128: anti-staphylococcal chimeric protein: phage tail associated muralytic enzyme (TAME) cell wall-degrading region plus staphylococcus-specific binding region; SEQ ID NO: 1 (protein)
chain: MSLDSLKKYNGKLPKHDPSFVQPGNRHYKYQCTWYAYNRRGQLGIPVPLWGDAADWIGGAKGAGYGVGRTPKQGACVIWQRGVQGGSPQYGHVAFVEKVLDGGKKIFISEHNYATPNGYGTRTIDMSSAIGKNAQFIYDKKLETPNTGWKTNKYGTLYKSESASFTPNTDIITRTTGPFRSMPQSGVLKAGQTIHYDEVMKQDGHVWVGYTGNSGQRIYLPVRTWNKSTNTLGVLWGTIK
modifications: P128 chimera
Lawn inhibition [1]: susceptible | Reduction in CFU of SCV strains [2]: more than 4 log | CFU/mL, P128 treated ([2]; S. aureus USA 300 (wild type), 1 h): 4.5 × 10^2 CFU/mL | CFU/mL, P128 treated ([2]; hemB small colony mutant NR48387, 1 h): 3.0 × 10^1 CFU/mL | CFU/mL, P128 treated ([2]; menD mutant small colony mutant, 1 h): 1.2 × 10^3 CFU/mL | CFU/mL, P128 treated ([3]; S. epidermidis B9467 stationary phase): 3.7 × 10^2 CFU/mL | CFU/mL, P128 treated ([3]; S. epidermidis B9470 stationary phase): 1.5 × 10^2 CFU/mL | CFU/mL, P128 treated ([3]; S. epidermidis B9472 stationary phase): 7 × 10^1 CFU/mL | Fold reduction in serum MIC (S. aureus; S. aureus MW2): 64 fold | MIC of P128 in CAMHB (S. aureus; S. aureus MW2): 8 μg/ml and (0.29) μM | MIC of P128 in Serum (S. aureus; S. aureus MW2): 0.12 μg/ml and (0.004) μM | Fold reduction in serum MIC (S. aureus; S. aureus USA 300): 64 fold | MIC of P128 in CAMHB (S. aureus; S. aureus USA 300): 8 μg/ml and (0.29) μM | MIC of P128 in Serum (S. aureus; S. aureus USA 300): 0.12 μg/ml and (0.004) μM | Fold reduction in serum MIC (S. epidermidis; S. epidermidis B9470): 32 fold | MIC of P128 in CAMHB (S. epidermidis; S. epidermidis B9470): 4 μg/ml and (0.14) μM | MIC of P128 in Serum (S. epidermidis; S. epidermidis B9470): 0.12 μg/ml and (0.004) μM | Fold reduction in serum MIC (S. epidermidis; S. epidermidis B9473): 4 fold | MIC of P128 in CAMHB (S. epidermidis; S. epidermidis B9473): 16 μg/ml and (0.58) μM | MIC of P128 in Serum (S. epidermidis; S. epidermidis B9473): 4 μg/ml and (0.14) μM | 24 h P128 MIC for serum time-kill (S. epidermidis; S. epidermidis, fetal calf serum): 0.25 µg/mL | Fold reduction in serum MIC (S. lugdunensis; S. lugdunensis B9476): 8 fold | MIC of P128 in CAMHB (S. lugdunensis; S. lugdunensis B9476): 4 μg/ml and (0.14) μM | MIC of P128 in Serum (S. lugdunensis; S. lugdunensis B9476): 0.5 μg/ml and (0.017) μM | Fold reduction in serum MIC (S. lugdunensis; S. lugdunensis B9510): 32 fold | MIC of P128 in CAMHB (S. lugdunensis; S. lugdunensis B9510): 16 μg/ml and (0.58) μM | MIC of P128 in Serum (S. lugdunensis; S. lugdunensis B9510): 0.5 μg/ml and (0.017) μM | 24 h P128 MIC for serum time-kill (S. lugdunensis; S. lugdunensis, fetal calf serum): 0.50 µg/mL | CFU reduction in vegetations (MRSA MW2): Significantly higher CFU reduction
